According to article PMC7563123 (Biomolecules, 2020):

Legend:
Conditions in all cases: both partners purified
[1] = target: T1, amyloid beta peptide 1-42 (Aβ1–42) (human, UniProt P05067 672-713); experiment: SPR; monomeric Aβ (Aβ1–40 by Preparation C, HFIP; Aβ1–42 by Preparation B, NaOH), five concentrations, flowed over cypD or 17β-HSD10 captured by immobilised antibody; running buffer RB1 (10 mM HEPES pH 7.4, BSA 200 μg/mL, 5 mM Na+, 140 mM K+, 1 mM Mg2+); 25 °C, 20 µL/min; global fit, 1:1 Langmuir model
T1 construct: amyloid beta peptide of 42 amino acids, human, produced from amyloid precursor protein; numbers count on: the Aβ peptide; One peptide used in two states; Preparation B (NaOH) is called monomeric, though it might hold monomers and low oligomers; Preparation A (plain dilution of the stock) is called oligomeric, and the size of the oligomers is not determined; The states are told apart by the …

[2] = target: T2, amyloid beta peptide 1-40 (Aβ1–40) (human, UniProt P05067 672-711); experiment: as above
T2 construct: amyloid beta peptide of 40 amino acids, human, produced from amyloid precursor protein; numbers count on: the Aβ peptide; Stock dissolved in 1% NH4OH and diluted by PBS to 100 μM; Preparation C (HFIP) is called monomeric, though it might hold monomers and low oligomers; also called monomeric Aβ_(1–40); source: synthetic peptide, bought: AnaSpec

[3] = target: T1, amyloid beta peptide 1-42 (Aβ1–42); experiment: SPR; oligomeric Aβ1–42 (Preparation A, dilution of the stock), 1.1-0.055 μM, flowed over cypD or 17β-HSD10 captured by immobilised antibody; running buffer RB1 (10 mM HEPES pH 7.4, BSA 200 μg/mL, 5 mM Na+, 140 mM K+, 1 mM Mg2+); 25 °C, 20 µL/min; global fit, 1:1 Langmuir model

Kd [1]: 56.5 ± 5.4 nM
koff [1]: 0.000139 s⁻¹
kon [1]: 2690 M⁻¹ s⁻¹
Kd [2]: 160 ± 57.8 nM
koff [2]: 0.000174 s⁻¹
kon [2]: 1170 M⁻¹ s⁻¹
Kd [3]: 5.3 ± 1.2 nM
koff [3]: 6.1e-05 s⁻¹
kon [3]: 11100 M⁻¹ s⁻¹
B1: cyclophilin D (cypD), human recombinant (enzyme)
chain: not shown
notes: cyclophilin D, human recombinant, NCBI Gene ID 10105; Commercial protein; It was held on the chip by an immobilised anti-cypD antibody; source: bought: Fitzgerald
